Laboratory results reported in patent US20240383958A1, “APELIN RECEPTOR AGONISTS AND USES THEREOF” (VISTERRA, INC., priority 2023, published 2024).

T1: APJ-eGFP fusion protein on CHO-M1 cells (UniProt P35414 1-380)
T1 sequence (looked up): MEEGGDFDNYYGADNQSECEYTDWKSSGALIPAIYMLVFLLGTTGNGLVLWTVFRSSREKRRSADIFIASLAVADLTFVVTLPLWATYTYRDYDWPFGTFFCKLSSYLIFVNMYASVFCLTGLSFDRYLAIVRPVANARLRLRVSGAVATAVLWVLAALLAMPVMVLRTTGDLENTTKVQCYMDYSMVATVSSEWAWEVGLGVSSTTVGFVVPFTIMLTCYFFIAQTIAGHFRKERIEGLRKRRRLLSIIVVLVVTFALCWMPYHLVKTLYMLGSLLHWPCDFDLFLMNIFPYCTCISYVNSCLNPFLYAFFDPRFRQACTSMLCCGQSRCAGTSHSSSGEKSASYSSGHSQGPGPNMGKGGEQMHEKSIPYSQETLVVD

B1: APL-K: Leader-Fc-linker fusion of apelin analogue QRPRLQHKNPMAF (S6Q, G9N, P12A) (protein)
chain: MRAWIFFLLCLAGRALADKTHTSPPSPAPEAAGGPSVFLFPPKPKDTLMISRTPEVTCVVVDVSHEDPEVKFNWYVDGVEVHNAKTKPREEQYNSTYRVVSVLTVLHQDWLNGKEYKCKVSNKALPAPIEKTISKAKGQPREPQVYTLPPSREEMTKNQVNLTCLVKGFYPSDIAVEWESNGQPENNYKTTPPVLDSDGSFFLNSTLTVDKSRWQQGNVFSCSVMHEALHNHYTQKSLSLSPGKGGGGSGGGGSGGGGSQRPRLQHKNPMAF
B2: APL-L: Leader-Fc-linker fusion of apelin analogue QRPRLQHKNPMAW (S6Q, G9N, P12A, F13W) (protein)
chain: MRAWIFFLLCLAGRALADKTHTSPPSPAPEAAGGPSVFLFPPKPKDTLMISRTPEVTCVVVDVSHEDPEVKFNWYVDGVEVHNAKTKPREEQYNSTYRVVSVLTVLHQDWLNGKEYKCKVSNKALPAPIEKTISKAKGQPREPQVYTLPPSREEMTKNQVNLTCLVKGFYPSDIAVEWESNGQPENNYKTTPPVLDSDGSFFLNSTLTVDKSRWQQGNVFSCSVMHEALHNHYTQKSLSLSPGKGGGGSGGGGSGGGGSQRPRLQHKNPMAW
B3: APL-M: Leader-Fc-linker fusion of apelin analogue QRPRLSHWGPMAW (K8W, P12A, F13W) (protein)
chain: MRAWIFFLLCLAGRALADKTHTSPPSPAPEAAGGPSVFLFPPKPKDTLMISRTPEVTCVVVDVSHEDPEVKFNWYVDGVEVHNAKTKPREEQYNSTYRVVSVLTVLHQDWLNGKEYKCKVSNKALPAPIEKTISKAKGQPREPQVYTLPPSREEMTKNQVNLTCLVKGFYPSDIAVEWESNGQPENNYKTTPPVLDSDGSFFLNSTLTVDKSRWQQGNVFSCSVMHEALHNHYTQKSLSLSPGKGGGGSGGGGSGGGGSQRPRLSHWGPMAW
B4: APL-A: Monovalent IgG1 Fc fused via GGGGSGGGGSGGGGS linker to wild-type apelin-13 QRPRLSHKGPMPF (protein)
chain: MRAWIFFLLCLAGRALADKTHTSPPSPAPEAAGGPSVFLFPPKPKDTLMISRTPEVTCVVVDVSHEDPEVKFNWYVDGVEVHNAKTKPREEQYNSTYRVVSVLTVLHQDWLNGKEYKCKVSNKALPAPIEKTISKAKGQPREPQVYTLPPSREEMTKNQVNLTCLVKGFYPSDIAVEWESNGQPENNYKTTPPVLDSDGSFFLNSTLTVDKSRWQQGNVFSCSVMHEALHNHYTQKSLSLSPGKGGGGSGGGGSGGGGSQRPRLSHKGPMPF
B5: APL-A (Fc fusion)
chain: DKTHTSPPSPAPEAAGGPSVFLFPPKPKDTLMISRTPEVTCVVVDVSHEDPEVKFNWYVDGVEVHNAKTKPREEQYNSTYRVVSVLTVLHQDWLNGKEYKCKVSNKALPAPIEKTISKAKGQPREPQVYTLPPSREEMTKNQVNLTCLVKGFYPSDIAVEWESNGQPENNYKTTPPVLDSDGSFFLNSTLTVDKSRWQQGNVFSCSVMHEALHNHYTQKSLSLSPGKGGGGSGGGGSGGGGSQRPRLSHKGPMPF
B6: APL-E (Fc fusion)
chain: DKTHTSPPSPAPEAAGGPSVFLFPPKPKDTLMISRTPEVTCVVVDVSHEDPEVKFNWYVDGVEVHNAKTKPREEQYNSTYRVVSVLTVLHQDWLNGKEYKCKVSNKALPAPIEKTISKAKGQPREPQVYTLPPSREEMTKNQVNLTCLVKGFYPSDIAVEWESNGQPENNYKTTPPVLDSDGSFFLNSTLTVDKSRWQQGNVFSCSVMHEALHNHYTQKSLSLSPGKGGGGSGGGGSGGGGSQRPRLSHKGPHPF
B7: APL-I (Fc fusion)
chain: DKTHTSPPSPAPEAAGGPSVFLFPPKPKDTLMISRTPEVTCVVVDVSHEDPEVKFNWYVDGVEVHNAKTKPREEQYNSTYRVVSVLTVLHQDWLNGKEYKCKVSNKALPAPIEKTISKAKGQPREPQVYTLPPSREEMTKNQVNLTCLVKGFYPSDIAVEWESNGQPENNYKTTPPVLDSDGSFFLNSTLTVDKSRWQQGNVFSCSVMHEALHNHYTQKSLSLSPGKGGGGSGGGGSGGGGSQRPRLSHKGPAAW
B8: APL-J (Fc fusion)
chain: DKTHTSPPSPAPEAAGGPSVFLFPPKPKDTLMISRTPEVTCVVVDVSHEDPEVKFNWYVDGVEVHNAKTKPREEQYNSTYRVVSVLTVLHQDWLNGKEYKCKVSNKALPAPIEKTISKAKGQPREPQVYTLPPSREEMTKNQVNLTCLVKGFYPSDIAVEWESNGQPENNYKTTPPVLDSDGSFFLNSTLTVDKSRWQQGNVFSCSVMHEALHNHYTQKSLSLSPGKGGGGSGGGGSGGGGSQRPRLSHKGPAAY
B9: APL-B (Fc fusion)
chain: DKTHTSPPSPAPEAAGGPSVFLFPPKPKDTLMISRTPEVTCVVVDVSHEDPEVKFNWYVDGVEVHNAKTKPREEQYNSTYRVVSVLTVLHQDWLNGKEYKCKVSNKALPAPIEKTISKAKGQPREPQVYTLPPSREEMTKNQVNLTCLVKGFYPSDIAVEWESNGQPENNYKTTPPVLDSDGSFFLNSTLTVDKSRWQQGNVFSCSVMHEALHNHYTQKSLSLSPGKGGGGSGGGGSGGGGSQRPRLSHKGPMVF
B10: APL-G (Fc fusion)
chain: DKTHTSPPSPAPEAAGGPSVFLFPPKPKDTLMISRTPEVTCVVVDVSHEDPEVKFNWYVDGVEVHNAKTKPREEQYNSTYRVVSVLTVLHQDWLNGKEYKCKVSNKALPAPIEKTISKAKGQPREPQVYTLPPSREEMTKNQVNLTCLVKGFYPSDIAVEWESNGQPENNYKTTPPVLDSDGSFFLNSTLTVDKSRWQQGNVFSCSVMHEALHNHYTQKSLSLSPGKGGGGSGGGGSGGGGSQRPRLSHKGPMAF
B11: APL-F (Fc fusion)
chain: DKTHTSPPSPAPEAAGGPSVFLFPPKPKDTLMISRTPEVTCVVVDVSHEDPEVKFNWYVDGVEVHNAKTKPREEQYNSTYRVVSVLTVLHQDWLNGKEYKCKVSNKALPAPIEKTISKAKGQPREPQVYTLPPSREEMTKNQVNLTCLVKGFYPSDIAVEWESNGQPENNYKTTPPVLDSDGSFFLNSTLTVDKSRWQQGNVFSCSVMHEALHNHYTQKSLSLSPGKGGGGSGGGGSGGGGSQRPRLSHKGPAPY
B12: APL-H (Fc fusion)
chain: DKTHTSPPSPAPEAAGGPSVFLFPPKPKDTLMISRTPEVTCVVVDVSHEDPEVKFNWYVDGVEVHNAKTKPREEQYNSTYRVVSVLTVLHQDWLNGKEYKCKVSNKALPAPIEKTISKAKGQPREPQVYTLPPSREEMTKNQVNLTCLVKGFYPSDIAVEWESNGQPENNYKTTPPVLDSDGSFFLNSTLTVDKSRWQQGNVFSCSVMHEALHNHYTQKSLSLSPGKGGGGSGGGGSGGGGSQRPRLSHKGPMHW

Key:
[1] = Proteolysis during production detected using mass spectroscopy; type: physicochemical; settings: proteolytic stability
From the text: Proteolysis during production was detected using mass spectroscopy, which provides insights into the proteolytic stability of the apelin receptor agonists.

APJ-eGFP fusion protein = assay: Internalization assay, CHO-M1 cells expressing APJ-eGFP, high-content imaging; type: cell-based; design: key: 0: No Internalization; >1000; 2: 100-1000; 3: 10-100; 4: <10; settings: lowest concentration at which maximum internalization was observed; 0.914 nM to 2000 nM
Procedure: In this example, the internalization of exemplary apelin receptor agonist was assessed. CHO-M1 cells expressing an APJ-eGFP fusion protein were stained and plated in a 96-well plate. Apelin receptor agonists were serially diluted and added to the wells at concentrations ranging from 0.914 nM to 2000 nM. The cells were later imaged using an Operetta CLS™ high-content analysis system. APJ-eGFP signal was measured in the membrane and cytoplasmic region, and the ratio of membrane signal to total signal was calculated (E ratio). An internalization score was assigned based on the lowest concentration of the compound at which maximum internalization was observed. The internalization score for each apelin receptor agonist was plotted against the EC50 values for cAMP signaling and beta-arrestin signaling as shown in FIG. 2 and FIG. 3.

[2] = target: T1, APJ-eGFP fusion protein on CHO-M1 cells; assay: cell-based or functional assay

Row | Molecule | Proteolysis During Production? [1] | Internalization Score (APJ-eGFP fusion protein) | Internalization Score [2]
1 | B1 | No | 0 | –
2 | B2 | No | 0 | –
3 | B3 | No | 0 | –
4 | B4 | Yes | 2 (100-1000) | –
5 | B5 | – | – | 2
6 | B6 | – | – | 1
7 | B7 | – | – | 1
8 | B8 | – | – | 1
9 | B9 | – | – | 2
10 | B10 | – | – | 3
11 | B11 | – | – | 1
12 | B12 | – | – | 0
